Data reported in the RNAGym collection of RNA variant scans (doi:10.1073/pnas.2313332121).

B1: TPR t1 (parent)
chain: GACCAAUCUGCCCUCAGAGCUCGAGAACAUCUUCGGAUGCAGAGGAGGCAGGCUUCGGUGGCGCGAUAGCGCCAACGUCCUCAACCUCCAAUGCAUCCCACCACAUGAUGAUGCCUGAAGAGCCUUGGUUUUUUG

Variants of: B1
Assay: polymerase ribozyme fitness, log enrichment relative to wild type (log ratio); higher = more active; in vitro selection for triplet polymerase activity
Outline: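 Fitness compares each genotype's enrichment to that of the wild type on a logarithmic scale, averaging replicates with inverse-variance weights. The logarithm is base 2. Enrichment came from Illumina sequencing of input and output libraries after one triplicate round of in vitro selection, which included frozen incubation at −7 °C, of PCR-built, transcribed mutant libraries of each subunit of a heterodimeric triplet polymerase ribozyme. Only genotypes with ≥10 input reads and ≥1 read per output were kept.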

| Variant | polymerase ribozyme fitness (log ratio) |
| --- | --- |
| U21G A41U G60C C80U U92C C97A A121U | -8.22 |
| G36U C40A | -3.53 |
| G36U U125A U133A | -2.46 |
| G42C C115U G120U U129G | -4.74 |
| C8A C28G U96A | -3.08 |
| U9G G39C G42U C64U | -2 |
| C49G U59G | -0.612 |
| A41U C82U G113C | -2.61 |
| G60A U92A | -3.24 |
| C22A U96G | -4.9 |
| U7A C123G | 2.34 |
| C13U G61A | -0.508 |
| G60C A121G | 1.05 |
| C13A G47A C64U G93U C101G U131A | -5.14 |
| C4U G17U G48A U54G G61A G77U U130C | -3.69 |
| C11U G42C G63C U130G | -3.61 |
| G63C C79U G117U | -2.56 |
| C62U A95U C114U | -3.03 |
| A43C U112G | -2.77 |
| C97U U125A | -1.31 |
| G44A A111C U131G | -2.35 |

| Variant | polymerase ribozyme fitness (log ratio) |
| --- | --- |
| A6G G19A A43U C123A G128A | -5.55 |
| C40G A41U G45U | -5.41 |
| U7A C12U C62A G113C | -3.19 |
| G69U C70A | -1.51 |
| U33A A50U G93C A95G C101G | -7.02 |
| A5C C15G G61A C114U | -6.53 |
| C101U G135U | -1.68 |
| C3U C15A G52C | -3.65 |
| G61A U78C | -0.183 |
| U9A G42A C70U U129A | -4.53 |
| A24C G48C U87A C97U C124A | -7.52 |
| U78C U112A C114G | -0.26 |
| G57C C89A G117U A118G U130C G135U | -2.49 |
| G10A C73U U116C | -1.59 |
| U7A A43C U129G | -4.22 |
| G69U C98U | 0.082 |
| C56G A95G | -1.22 |
| A5C C53G U92G G117C U129C U133C | -5.53 |
| C15G C70G A90G C114G | -6.41 |
| C34G A41C C56A A66U C115A | -7.59 |
| C13A G117A | -4.07 |

| Variant | polymerase ribozyme fitness (log ratio) |
| --- | --- |
| C13U C49U G57A C82G U106A | -0.895 |
| C40U A43G G61A C97U | -3.06 |
| C13U A41G A46G C53A U78C | -0.474 |
| U7A G19U C73G U92A | -4.76 |
| C13G G44A G48C U55G C79U C124G | -0.404 |
| G10C G42U | -2.19 |
| G10C C28G | -3.74 |
| C8G C62U A118U U131C | 1.45 |
| C31G U109G C114G | -6.93 |
| A27C C31U A46C A84C C89A G110U U112A C123U U125A | -6.63 |
| C73A U125A | -0.432 |
| C72G U81A U130A | -1.44 |
| U32C G48U C56A G71U U112G | -4.24 |
| C13U G52U G110U U133C | -1.33 |
| C20G A43G | -3.54 |
| A26C C97U | -5.92 |
| G61U G128A | -1.7 |
| G51C G63A U78C A111C | -6.17 |
| U54A C115U U131C G135C | -1.35 |
| C8U C40U C104A A119G | -1.19 |
| A16U U116C | -0.734 |

| Variant | polymerase ribozyme fitness (log ratio) |
| --- | --- |
| U14G C53A A84C | -2.21 |
| C20U A95C | -2.07 |
| C13A G61A C88A G110A | -2.92 |
| C13A C114U | -2.86 |
| C53A C85G | -1.17 |
| C3G C102U C123A | -2.99 |
| C4U C12U C13U G69C C124G | -0.455 |
| C64U C72U A90C C104A A111G G127A G135A | -4.26 |
| A6U C102A C123G | -0.023 |
| G42U G48A C104U | -0.902 |
| C56A C72G | -0.848 |
| G42U C88A U92A G120A | -1.96 |
| G52C U116A G120A | -2.46 |
| C3U A83U | -0.257 |
| A6U G23U | -4.65 |
| A27G C49U | -2.19 |
| G25C A119G | -6.74 |
| G48C G77U C89U C123U | -0.348 |
| C15G G47U | -3.95 |
| A18U G36U U59C C97G | -4.79 |
